Laboratory results from patent US20030068675, “Position dependent recognition of GNN nucleotide triplets by zinc fingers” (published 2003).

Tests used:
Assay in all cases: EMSA
Conditions in all cases: tags: MBP fusion
ZFP SBS#1090 = target: T1, ZFP SBS#1090 (synthetic, UniProt P08047)
T1 chain: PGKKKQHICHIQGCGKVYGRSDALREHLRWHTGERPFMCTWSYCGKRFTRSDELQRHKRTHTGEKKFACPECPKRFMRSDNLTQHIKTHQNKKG
Method in brief: (§1)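 Purified ZFP was titrated against labeled double-stranded target (1 nM or lower, at least 10-fold below expected Kd) carrying the natural binding site with flanks. Binding buffer was 10 mM Tris pH 7.5, 100 mM KCl, 1 mM MgCl2, 0.1 mM ZnCl2, 5 mM DTT, 10% glycerol, 0.02% BSA, with equilibration for at least 45 min. Bound and free target were separated on a 10% polyacrylamide gel.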

ZFP SBS#1168 = ZFP SBS#1168 (synthetic)
Method in brief: as §1

ZFP SBS#1169 = target: T2, ZFP SBS#1169 (synthetic)
T2 chain: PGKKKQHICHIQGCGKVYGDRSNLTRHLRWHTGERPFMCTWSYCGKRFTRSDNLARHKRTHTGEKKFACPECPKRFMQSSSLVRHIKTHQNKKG
Method in brief: as §1

ZFP SBS#1091 = target: T3, ZFP SBS#1091 (synthetic)
T3 chain: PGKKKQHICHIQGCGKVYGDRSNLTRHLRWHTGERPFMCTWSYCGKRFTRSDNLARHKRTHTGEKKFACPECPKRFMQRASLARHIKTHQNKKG
Method in brief: as §1

ZFP SBS#1092 = target: T4, ZFP SBS#1092 (synthetic)
T4 chain: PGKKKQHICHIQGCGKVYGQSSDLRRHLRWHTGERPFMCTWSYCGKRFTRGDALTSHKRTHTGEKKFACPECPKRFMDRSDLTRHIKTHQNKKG
Method in brief: as §1

ZFP SBS#1170 = target: T5, ZFP SBS#1170 (synthetic)
T5 chain: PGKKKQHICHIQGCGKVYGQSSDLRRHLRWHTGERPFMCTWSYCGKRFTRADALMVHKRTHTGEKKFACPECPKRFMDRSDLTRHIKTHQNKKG
Method in brief: as §1

ZFP SBS#1093 = ZFP SBS#1093 (synthetic)
Method in brief: as §1

ZFP SBS#1171 = target: T6, ZFP SBS#1171 (synthetic)
T6 chain: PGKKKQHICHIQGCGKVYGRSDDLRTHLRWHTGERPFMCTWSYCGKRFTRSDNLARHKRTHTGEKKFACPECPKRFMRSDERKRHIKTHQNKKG
Method in brief: as §1

ZFP SBS#1099 = target: T7, ZFP SBS#1099 (synthetic)
T7 chain: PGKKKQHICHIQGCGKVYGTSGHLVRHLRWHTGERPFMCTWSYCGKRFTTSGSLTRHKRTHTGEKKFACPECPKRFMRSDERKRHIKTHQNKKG
Method in brief: as §1

ZFP SBS#1172 = target: T8, ZFP SBS#1172 (synthetic)
T8 chain: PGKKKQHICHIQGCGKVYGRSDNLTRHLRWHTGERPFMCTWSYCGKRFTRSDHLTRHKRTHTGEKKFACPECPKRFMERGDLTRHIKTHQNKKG
Method in brief: as §1

ZFP SBS#1098 = ZFP SBS#1098 (synthetic)
Method in brief: as §1

ZFP SBS#1100 = target: T9, ZFP SBS#1100 (synthetic)
T9 chain: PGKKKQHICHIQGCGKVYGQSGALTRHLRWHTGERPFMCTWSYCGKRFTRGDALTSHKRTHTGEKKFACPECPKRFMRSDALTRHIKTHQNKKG
Method in brief: as §1

ZFP SBS#1162 = target: T10, ZFP SBS#1162 (synthetic)
T10 chain: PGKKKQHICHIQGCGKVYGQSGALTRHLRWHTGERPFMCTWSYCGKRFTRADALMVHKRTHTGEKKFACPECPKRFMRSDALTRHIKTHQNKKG
Method in brief: as §1

ZFP SBS#1181 = target: T11, ZFP SBS#1181 (synthetic)
T11 chain: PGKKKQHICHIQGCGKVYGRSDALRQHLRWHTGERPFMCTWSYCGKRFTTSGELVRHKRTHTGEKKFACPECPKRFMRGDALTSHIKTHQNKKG
Method in brief: as §1

ZFP SBS#1126 = target: T12, ZFP SBS#1126 (synthetic)
T12 chain: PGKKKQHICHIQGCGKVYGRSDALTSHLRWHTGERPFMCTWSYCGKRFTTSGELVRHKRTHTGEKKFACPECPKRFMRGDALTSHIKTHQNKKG
Method in brief: as §1

ZFP SBS#1128 = target: T13, ZFP SBS#1128 (synthetic)
T13 chain: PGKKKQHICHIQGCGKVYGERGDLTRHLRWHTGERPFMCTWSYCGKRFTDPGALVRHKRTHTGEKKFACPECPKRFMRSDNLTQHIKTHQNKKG
Method in brief: as §1

ZFP SBS#1175 = ZFP SBS#1175 (synthetic)
Method in brief: as §1

ZFP SBS#1176 = ZFP SBS#1176 (synthetic)
Method in brief: as §1

ZFP SBS#1131 = target: T14, ZFP SBS#1131 (synthetic)
T14 chain: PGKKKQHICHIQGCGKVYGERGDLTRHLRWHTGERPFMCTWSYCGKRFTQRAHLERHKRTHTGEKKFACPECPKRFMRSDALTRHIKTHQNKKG
Method in brief: as §1

ZFP SBS#476 = ZFP SBS#476 (synthetic, UniProt P08047)
Method in brief: as §1

ZFP SBS#478 = ZFP SBS#478 (synthetic, UniProt P08047)
Method in brief: as §1

ZFP SBS#477 = ZFP SBS#477 (synthetic)
Method in brief: as §1

ZFP SBS#1159 = target: T15, ZFP SBS#1159 (synthetic)
T15 chain: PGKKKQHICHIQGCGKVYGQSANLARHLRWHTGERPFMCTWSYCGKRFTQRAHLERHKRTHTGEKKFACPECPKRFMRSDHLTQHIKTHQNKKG
Method in brief: as §1

ZFP SBS#1158 = ZFP SBS#1158 (synthetic)
Method in brief: as §1

ZFP SBS#1160 = target: T16, ZFP SBS#1160 (synthetic)
T16 chain: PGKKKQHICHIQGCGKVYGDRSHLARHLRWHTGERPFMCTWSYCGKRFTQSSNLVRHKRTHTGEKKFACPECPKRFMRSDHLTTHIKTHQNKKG
Method in brief: as §1

ZFP SBS#1161 = target: T17, ZFP SBS#1161 (synthetic)
T17 chain: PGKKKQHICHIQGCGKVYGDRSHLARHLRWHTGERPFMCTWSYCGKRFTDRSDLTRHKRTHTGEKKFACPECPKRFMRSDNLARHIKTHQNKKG
Method in brief: as §1

ZFP SBS#1164 = target: T18, ZFP SBS#1164 (synthetic)
T18 chain: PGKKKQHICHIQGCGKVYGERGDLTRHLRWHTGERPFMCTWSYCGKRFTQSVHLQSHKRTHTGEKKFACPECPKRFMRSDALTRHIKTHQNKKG
Method in brief: as §1

ZFP SBS#1163 = target: T19, ZFP SBS#1163 (synthetic)
T19 chain: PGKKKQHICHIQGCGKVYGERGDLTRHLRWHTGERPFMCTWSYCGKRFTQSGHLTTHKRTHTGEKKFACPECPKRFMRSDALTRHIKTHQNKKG
Method in brief: as §1

ZFP SBS#1166 = ZFP SBS#1166 (synthetic)
Method in brief: as §1

ZFP SBS#1167 = ZFP SBS#1167 (synthetic)
Method in brief: as §1

ZFP SBS#1165 = ZFP SBS#1165 (synthetic)
Method in brief: as §1

ZFP SBS#1174 = ZFP SBS#1174 (synthetic)
Method in brief: as §1

ZFP SBS#1173 = ZFP SBS#1173 (synthetic)
Method in brief: as §1

ZFP SBS#1177 = target: T20, ZFP SBS#1177 (synthetic)
T20 chain: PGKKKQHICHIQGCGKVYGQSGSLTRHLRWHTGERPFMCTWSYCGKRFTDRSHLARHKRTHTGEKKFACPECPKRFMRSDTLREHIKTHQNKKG
Method in brief: as §1

ZFP SBS#1178 = target: T21, ZFP SBS#1178 (synthetic)
T21 chain: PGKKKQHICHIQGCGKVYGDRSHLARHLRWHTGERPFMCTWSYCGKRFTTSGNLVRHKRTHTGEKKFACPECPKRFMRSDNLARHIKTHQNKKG
Method in brief: as §1

ZFP SBS#1183 = target: T22, ZFP SBS#1183 (synthetic)
T22 chain: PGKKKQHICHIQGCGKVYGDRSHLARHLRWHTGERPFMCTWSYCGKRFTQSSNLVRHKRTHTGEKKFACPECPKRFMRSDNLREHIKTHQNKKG
Method in brief: as §1

ZFP SBS#1182 = ZFP SBS#1182 (synthetic)
Method in brief: as §1

B1: AAGGCGCTG (dsDNA)
DNA 1: AAGGCGCTG
DNA 2: CAGCGCCTT
- Kd (ZFP SBS#1090): 30300 pM
- Kd (ZFP SBS#1168): 2800 pM

B2: GTAGAGGAC (dsDNA)
DNA 1: GTAGAGGAC
DNA 2: GTCCTCTAC
- Kd (ZFP SBS#1169): 53 pM
- Kd (ZFP SBS#1091): 85 pM

B3: GCCTTGGCT (dsDNA)
DNA 1: GCCTTGGCT
DNA 2: AGCCAAGGC
- Kd (ZFP SBS#1092): 2740 pM
- Kd (ZFP SBS#1170): 2750 pM

B4: GCGGAGTCG (dsDNA)
DNA 1: GCGGAGTCG
DNA 2: CGACTCCGC
- Kd (ZFP SBS#1093): 46 pM
- Kd (ZFP SBS#1171): 180 pM
- Kd (ZFP SBS#1099): 450 pM

B5: GCCGGGGAG (dsDNA)
DNA 1: GCCGGGGAG
DNA 2: CTCCCCGGC
- Kd (ZFP SBS#1172): 10 pM
- Kd (ZFP SBS#1098): 55 pM

B6: GTGTTGGTA (dsDNA)
DNA 1: GTGTTGGTA
DNA 2: TACCAACAC
- Kd (ZFP SBS#1100): 1400 pM
- Kd (ZFP SBS#1162): 465 pM

B7: TTGGCTATG (dsDNA)
DNA 1: TTGGCTATG
DNA 2: CATAGCCAA
- Kd (ZFP SBS#1181): 8200 pM
- Kd (ZFP SBS#1126): 460 pM

B8: AAGGTCGCC (dsDNA)
DNA 1: AAGGTCGCC
DNA 2: GGCGACCTT
- Kd (ZFP SBS#1128): 5450 pM
- Kd (ZFP SBS#1175): 8900 pM

B9: GTGGGAGCC (dsDNA)
DNA 1: GTGGGAGCC
DNA 2: GGCTCCCAC
- Kd (ZFP SBS#1176): 4100 pM
- Kd (ZFP SBS#1131): 950 pM

B10: GGAGAGGATG (dsDNA)
DNA 1: GGAGAGGATG
DNA 2: CATCCTCTCC
- Kd (ZFP SBS#476): 80000 pM
- Kd (ZFP SBS#478): 60000 pM
- Kd (ZFP SBS#477): 100000 pM

B11: AGGGGAGAA (dsDNA)
DNA 1: AGGGGAGAA
DNA 2: TTCTCCCCT
- Kd (ZFP SBS#1159): 555 pM
- Kd (ZFP SBS#1158): 100 pM

B12: TGGGAAGGC (dsDNA)
DNA 1: TGGGAAGGC
DNA 2: GCCTTCCCA
- Kd (ZFP SBS#1160): 415 pM

B13: GAGGCCGGC (dsDNA)
DNA 1: GAGGCCGGC
DNA 2: GCCGGCCTC
- Kd (ZFP SBS#1161): 450 pM

B14: GTGTGAGCC (dsDNA)
DNA 1: GTGTGAGCC
DNA 2: GGCTCACAC
- Kd (ZFP SBS#1164): 15400 pM
- Kd (ZFP SBS#1163): 1450 pM

B15: GCGAAGGTG (dsDNA)
DNA 1: GCGAAGGTG
DNA 2: CACCTTCGC
- Kd (ZFP SBS#1166): 195 pM
- Kd (ZFP SBS#1167): 950 pM
- Kd (ZFP SBS#1165): 1400 pM

B16: GCTGAAGGG (dsDNA)
DNA 1: GCTGAAGGG
DNA 2: CCCTTCAGC
- Kd (ZFP SBS#1174): 18 pM
- Kd (ZFP SBS#1173): 8 pM

B17: CCGGGCGCA (dsDNA)
DNA 1: CCGGGCGCA
DNA 2: TGCGCCCGG
- Kd (ZFP SBS#1177): 4100 pM

B18: GAGGATGGC (dsDNA)
DNA 1: GAGGATGGC
DNA 2: GCCATCCTC
- Kd (ZFP SBS#1178): 85 pM

B19: CAGGAAGGC (dsDNA)
DNA 1: CAGGAAGGC
DNA 2: GCCTTCCTG
- Kd (ZFP SBS#1183): 1940 pM
- Kd (ZFP SBS#1182): 1480 pM
